No end group written: not given here. *: point of attachment. acrylodan = acrylodan label (AcDan) on Cys, CN(C)c1ccc2cc(C(=O)CC*)ccc2c1; Dansyl = CN(C)c1cccc2c(S(=O)(=O)*)cccc12
Biological target: T1, hGOAT (Homo sapiens, UniProt Q96T53)
T1 construct: the gene for hGOAT was cloned with a C-terminal His10 tag into the pFastBacDual vector; His10 (C); made in house; host or cells: Sf9 insect cells, baculovirus (pFastBacDual); used as membrane fraction
T1 sequence (Q96T53 1-435): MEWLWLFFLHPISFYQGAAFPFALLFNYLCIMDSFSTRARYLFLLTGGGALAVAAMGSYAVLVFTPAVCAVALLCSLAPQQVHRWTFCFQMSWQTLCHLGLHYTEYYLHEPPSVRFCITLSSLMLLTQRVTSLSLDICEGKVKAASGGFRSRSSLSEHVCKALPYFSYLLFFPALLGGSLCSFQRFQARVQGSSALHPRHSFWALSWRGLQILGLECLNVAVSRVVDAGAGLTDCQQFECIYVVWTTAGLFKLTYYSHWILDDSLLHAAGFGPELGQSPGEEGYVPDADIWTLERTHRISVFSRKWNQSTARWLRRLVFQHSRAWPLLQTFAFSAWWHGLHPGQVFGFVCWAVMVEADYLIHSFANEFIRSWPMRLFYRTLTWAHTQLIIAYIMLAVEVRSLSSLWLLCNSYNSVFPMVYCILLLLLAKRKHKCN
Assay: hGOAT-catalysed octanoylation of fluorescent ghrelin peptide substrates, RP-HPLC with fluorescence detection
Type: biochemical
Details: for modification (octanoylation) by hGOAT: RP-HPLC with fluorescence detection, hGOAT-His10 membranes vs mock membranes; for Active with hGOAT?: peptide tested as substrate, hGOAT-His10 membranes in parallel with mock membranes; for activity with hGOAT (substrate selectivity at N-terminus, G1 and S2): ghrelin mimic peptide mutants, FIG. 5
Experimental: FIG. 3 is a schematic of ghrelin peptide acylation reactions with the fluorescent GSSFLCAcDan substrate, where (A) is a reaction with control/mock membrane fraction; (B) is a time course for GSSFLCAcDan acylation using GOAT membrane fraction, and where the assays were incubated for 1-10 minutes at 37° C. and all reactions were analyzed using reverse-phase HPLC under the following assay conditions: 10 μM peptide, 50 μg membrane protein, 500 μM octanoyl coenzyme A, 100 μM palmitoyl coenzyme A, 50 mM HEPES buffer pH 7.0.
In order to test the activity of peptide substrates, the gene for hGOAT was cloned with a C-terminal His10 tag into the pFastBacDual vector and expressed using standard baculoviral procedures.
With the peptide substrates, the addition of the hydrophobic octanoyl group upon serine acylation at position 3 leads to an increase in retention time in reverse-phase (RP) HPLC. The panel of fluorescent ghrelin peptide substrates was assayed for activity with hGOAT using HPLC coupled with fluorescence detection of the fluorescently labeled peptides. All reactions with hGOAT-His 10 membranes were performed in parallel with mock membranes to account for nonspecific peptide modifications.
An assay for human ghrelin O-acyltransferase activity was performed using hGOAT expressed from insect (Sf9) cells using standard baculoviral methods and a fluorescent 6-mer peptide synthesized by a single step reaction followed by high performance liquid chromatography (HPLC) purification. The assay was performed at room temperature using hGOAT membrane protein, octanoyl-CoA, a fluorescent ghrelin peptide, a buffer, and a detergent. Activity may be measure by detecting the presence of any octanoylation of the ghrelin peptide. For example, the presence of octanoylated ghrelin peptide may be confirmed by HPLC or by using a fluorescent system whose fluorescence will increase as a result of octanoylation of the ghrelin peptide.

Active with hGOAT? | activity with hGOAT (substrate selectivity at N-terminus, G1 and S2) | Substance | modification (octanoylation) by hGOAT
Yes |  | GSSFCAcDanS (SEQ. ID No. 4) (GSSFC(acrylodan)S; ends and bridges not checked) [AcDan-5, ghrelin mimic peptide with acrylodan on cysteine at position 5] | yielded the octanoylated peptide with increased retention time
No |  | Dansyl-GSSFLS (SEQ. ID No. 2) (ends and bridges not checked) [Substrate 1-Dansyl, ghrelin mimic peptide with N-terminal dansyl fluorophore] | not modified by hGOAT
 | no activity | [Ac]SSFLC (SEQ. ID No. 6) (Ac-SSFLC; not fully specified; ends and bridges not checked) [N-terminally acetylated ghrelin mimic peptide lacking G1] | 
No |  | GCAcDanSFLS (SEQ. ID No. 3) (GC(acrylodan)SFLS; ends and bridges not checked) [AcDan-2, ghrelin mimic peptide with acrylodan on cysteine at position 2] | not modified by hGOAT
 | low activity | [Ac]GSSFLC (SEQ. ID No. 1) | 
Yes |  | GSSFLCAcDan (SEQ. ID No. 5) [AcDan-6] | yielded the octanoylated peptide with increased retention time
